Assay results taken from PMC11384114.

Biological target: cLUC-SlPIF4 (tomato (Solanum lycopersicum))
Assay: split reporter (BiFC, NanoBiT); split luciferase complementation: cLUC-SlPIF4 and nLUC-SlDELLA co-expressed in N. benthamiana leaves for 2 days; 1 mM D-luciferin; camera and microplate luminometer

Sequence of cLUC-SlPIF4 (tomato (Solanum lycopersicum)) (main, as listed by the source): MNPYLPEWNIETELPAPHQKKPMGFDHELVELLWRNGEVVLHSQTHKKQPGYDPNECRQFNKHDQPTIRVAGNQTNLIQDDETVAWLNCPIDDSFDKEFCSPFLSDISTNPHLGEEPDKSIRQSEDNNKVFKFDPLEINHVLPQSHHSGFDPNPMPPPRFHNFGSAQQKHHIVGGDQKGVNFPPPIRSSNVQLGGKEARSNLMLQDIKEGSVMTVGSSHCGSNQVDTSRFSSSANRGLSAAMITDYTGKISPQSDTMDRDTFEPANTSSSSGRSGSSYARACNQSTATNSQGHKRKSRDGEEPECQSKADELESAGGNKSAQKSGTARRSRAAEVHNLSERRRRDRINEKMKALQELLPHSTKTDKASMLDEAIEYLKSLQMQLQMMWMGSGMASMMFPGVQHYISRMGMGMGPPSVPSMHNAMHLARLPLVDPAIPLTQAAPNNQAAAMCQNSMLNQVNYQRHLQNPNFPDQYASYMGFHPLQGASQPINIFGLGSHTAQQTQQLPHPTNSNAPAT

luciferase activity, fold over the control co-expressing cLUC and nLUC (times the control): 170
Substance: nLUC-SlDELLA (natural protein)
